These results are taken from the DeepSol protein solubility set.

This series is described as follows: soluble on expression in E. coli; label from the status in PepcDB or PDB records.
Take “MKDREIFAGLSTTVPFVLRLDGRSFHRFSKDRYKKPYDKVFSDAMVKTARALVTDSGLSPSFAYTFSDEISLYVPAPVFDCRVEKLASVSAAFAASAFTLYAGASEPLAFDARVIPIEEGLFPAYLSWRQAEAWRNHMNGYAQKILQDEGVSPTNAQKQLDGMNAAALHEFAFSRGVNLALTPAWERRGICIYRDVVMRDGYNPIKDEKVSVERTIAVIDEDVPLFKSPEGTAWVLSKIRLEHHHHHH”: the “soluble on expression in E. coli” value is on record as “not soluble”.

For the sequence “MKDRELLAKSITTKDAVSDGRESPSLLSDKLSRLPWSTLYASVFCAGVLLLPFSGQAVEPPVAAKASENKNQLKTLQQDIAEKEKSVQQQKKQRSSLLDQLKQQENTISQTSRSLRETQAALAELSKDIASLTTSIEKLQNQQSQQQSILSKQLAAAFKQGKHSSLQLILSGEESQRSERILAYFSYLNEARQKAIEELKQTRTTLSAEKKMLEQKQNQHKALLDEQKAQQQKLEQARIARQKTLTSLEASLEKDQQSLAELKLNESRLRDQIAKAEREAKARAEREAKEAARVREQVKVKEQQAKKTGSSYKPSESERSLMARTGGLGRPGGQALWPVRGNVSHRFGEPLQGELRWKGMVITAPEGSEVKAIADGRVLLADWLQGYGLVVVIEHGKGDMSLYGYNQSALVNVGAQVKAGQPIALVGTSGGQGEPSLYFEIRRQGQAVNPQPWLGR”, the “soluble on expression in E. coli” value was “not soluble”.

For the sequence “MKDTLGFEHADRSLYYRFRNSLSSNLHLTHFDIETKLEVAKKFNLILNDQFVKDLNSTMNLIFEPNGCLASYTWKTDFLDYTLNPMELIIPYQSVIPSKTVPYRKRRMNDLEDLRKIKECSKRAFISNSDQSEVPSTSMLNSMKEMITEAVETSNKKLIEELKTSNEALVAQVANFKSKHIEQSSGKPGMRAYLEGLKGFLHHLNMPELADIKVRLNTLEKDLGDTDQPIPVQSIHSVLDIGLKLIGG”, the “soluble on expression in E. coli” value is “not soluble”.

“MKEALEAALREILGPGEVVALRRLPGGASKEAWAVDYRTGEALHPLFLRRAGGGVIYSKTLALAEEFRLLQVAWAHGVKVPEPLHYFPDLEGREAFLMRRLEGETIGARVVRRPELARARETLPQAMAEELAKIHALSPDEVPFLQPPSLPSWRPALKKACRDLNALGKPHPALKWGMRWLLTHPPRELPPVVVHGDFRVGNLLVNGEGLVAVLDWEFAHLGDPREDLAWPLVRAWRFGEDGKRLGGVGEVGPFLERYNALTGRDIAEEELFWWEVLGNVRWGLGALKQARRHLRGEERSVELAVLGRLASEMEYEVLHLLERYG”: the “soluble on expression in E. coli” value is on record as “soluble”.

Turning to “MKEFIISEARTEPTVLVGLITPQQSETQVREYLDELAFLCETAGAQPIARFTQKLDQPNSVTFVGKGKLDEIRAYVQENEIGMVVFDDELSPKQLRNIEKELQTKILDRTGLILDIFARRAQTAHAKTQVELAQYQYMLPRLTGLWTHLERQRGGVGMRGPGEKQLETDRRIVLDKIARLKEELRDIDKQKSVQRKNRGKMVRVALVGYTNVGKSTLMNVLSKSEVFAENKLFATLDTTVRKVIIDNLPFLLSDTVGFIRKLPTQLVESFKSTLDEVREADLLVHVVDMSHPAFEEQIEVVNQTLAEITAGEEKPMLLLFNKIDAFSFTPKDEDDLTPRTKENISAEELQQTWMAKLGNDCLFVSAKKGTGMDALKALLYERAKAIHITRFPYNDFLFQDYSEEME”, the “soluble on expression in E. coli” value is on record as “not soluble”.

In the case of “MKEFYLTVEQIGDSIFERYIDSNGRERTREVEYKPSLFAHCPESQATKYFDIYGKPCTRKLFANMRDASQWIKRMEDIGLEALGMDDFKLAYLSDTYNYEIKYDHTKIRVANFDIEVTSPDGFPEPSQAKHPIDAITHYDSIDDRFYVFDLLNSPYGNVEEWSIEIAAKLQEQGGDEVPSEIIDKIIYMPFDNEKELLMEYLNFWQQKTPVILTGWNVESFDIPYVYNRIKNIFGESTAKRLSPHRKTRVKVIENMYGSREIITLFGISVLDYIDLYKKFSFTNQPSYSLDYISEFELNVGKLKYDGPISKLRESNHQRYISYNIIDVYRVLQIDAKRQFINLSLDMGYYAKIQIQSVFSPIKTWDAIIFNSLKEQNKVIPQGRSHPVQPYPGAFVKEPIPNRYKYVMSFDLTSLYPSIIRQVNISPETIAGTFKVAPLHDYINAVAERPSDVYSCSPNGMMYYKDRDGVVPTEITKVFNQRKEHKGYMLAAQRNGEIIKEALHNPNLSVDEPLDVDYRFDFSDEIKEKIKKLSAKSLNEMLFRAQRTEVAGMTAQINRKALINGLAGALGNVWFRYYDLRNATAITTFGQMALQWIERKVNEYLNEVCGTEGEAFVLYGDTDSIYVSADKIIDKVGESKFRDTNHWVDFLDKFARERMEPAIDRGFREMCEYMNNKQHLMFMDREAIAGPPLGSKGIGGFWTGKKRYALNVWDMEGTRYAEPKLKIMGLETQKSSTPKAVQKALKECIRRMLQEGEESLQEYFKEFEKEFRQLNYISIASVSSANNIAKYDVGGFPGPKCPFHIRGILTYNRAIKGNIDAPQVVEGEKVYVLPLREGNPFGDKCIAWPSGTEITDLIKDDVLHWMDYTVLLEKTFIKPLEGFTSAAKLDYEKKASLFDMFDFHHHHHH”, the “soluble on expression in E. coli” value was “soluble”.

As to “MKEHIAAVHKQTIAQAAERLFLERGFDGTSISDICAASGYSRRTVYRYFDTKEEILYYIVANGLEQLRDRLTDIVQAEQPFLAKYEHICKAMRAYYEHCPISARAVHQFQPKALETVTPTMETIFSLGTAINDALARWIEQGIAEGVVRETADVMMTVYVFSAQLHALFDLVETKGAFLLPTLGKTKEQFFAYGQKMIFNSLAKEPLL”, the “soluble on expression in E. coli” value is reported as “soluble”.

On to “MKEKIPFYNEKEFNEMMKKTKKGTFSGWYIINPENNSVEFSGSFNRQFKLNKPIIPVNTEYVTRKEFNEYKDSNDQRLIKIETTLTAQGEQINKLTQTVEKQGEQIRELQVEQKAQGEQIKAQGETLKLILQTLQKMSDRLDKIDPPKLEHHHHHH”, for which the “soluble on expression in E. coli” value is “not soluble”.

In the case of “MKEKISEKEYKALIRKTGKEHFDGEKEEYGDGTVGVWTYELRKYKLKPPVKVKYVTQEQFQEYKDSNNQRLIKIENKVDKLVEIVQIHGEQIKAQGETLQLILQTLQKMSDRLDKMEKRIDKLESKLEHHHHHH”, the “soluble on expression in E. coli” value was “not soluble”.

Consider “MKEKSIEDIVFEKFQPYINWSIDKLCEHFSINKGEKGLNYRIASAILNLKGKTTKSKPFPEVEEFEKSSIVVKTVHFNKKNVNKESMSFGAFKFEELANEEWEDSEGYPSAQWRNFLLETRFLFFVVKEDEDGVDIFKGIKFFSMPEEDINGPVKRMWDDTVKKLKEGVTLEAVPDKSTKDGWRIKNNFVDKSDDLICHVRPHTNNRDYRGGSNADKLPKKINWINRPDSDDYSDEWMTKQSFWINNDYIKKQVEDLL”, for which the “soluble on expression in E. coli” value was “soluble”.

For “MKEKSSVEVRLDKWLWAARFYKTRAMAREMIEGGKVHYNGQRSKPSKIVELNATLTLRQGNDERTVIVKAITEQRRPASEAVALYEETAESVEKREKMAQARKLNALTMPHPDRRPDKKERRDLLRFKHGDSE”, the “soluble on expression in E. coli” value is recorded as “not soluble”.

Turning to “MKEKVFFKTFGCRTNIYDTELLKSYVKDYEIINDENKAQIIVVNSCTVTNGADSGIKSYVNTMQKKGIKVILTGCGAVSKGKELLDKKQVFGVLGASNKDKINEFLGAKTSFYELGNLNFIDKDIVCEYENHTKAFVKIQEGCDFACSYCIIPSVRGKSRSVDEKALLKQVEILGANGYSEIVLTGTNIGSYGLKNGTTLGKLLQKMGQILGIKRIRLGSLEPAQLDESFLEILDEAWLERHLHIALQHTSEKMLRIMRRRSHTDNDLKLFNTIASKGYALGTDFIVAHPGESEELWQEALRNFKEFPLTHIHAFIFSPRNNTHSATMKDVINGTLAKERLNTLKSIVEKNNYEFRKKNQVSLEVLVENQKDGFFEGYDQFFNKIKIKSDKDIAKEWIVISEYEVQEKSNFTNLKGLEHHHHHH”, the “soluble on expression in E. coli” value was “soluble”.

Turning to “MKELMRNVYLLDDTLVTKSKYGSHYGEKVFDGYREWVPWRSKLAAMILKGHRLKLRGDERVLYLGAASGTTVSHLADIVDEGIIYAVEYSAKPFEKLLELVRERNNIIPLLFDASKPWKYSGIVEKVDLIYQDIAQKNQIEILKANAEFFLKEKGEVVIMVKARSIDSTAEPEEVFKSVLKEMEGDFKIVKHGSLMPYHRDHIFIHAYRF”, the “soluble on expression in E. coli” value is listed as “soluble”.

Take “MKEMTGLHSLVSIENFIKQHKFSFIYISRPGCTVCHAVLPQLRIVLDQFPNIKLGHINADDVAEVAGRFSVFTVPVLLLFIDGTEFLREARFVHFEQLEQKLKRVYRLYEGE”: the “soluble on expression in E. coli” value is “not soluble”.

In the case of “MKEMVGGCCVCADENGWTDNPLIYCDGENCEVAVHQGCYGIQEVPEGEWFCAKCTKASAMMPGSINEATFCCQLCPFDYGALKKTDRNGWAHVICALYIPEVRFGNVHSMEPVILNDVPTDKFNKLCYICNEERPNDAKKGACMSCNKSTCKRSFHVTCAQRKGLLCEEGAISRNVKYCGYCENHLKKAINDPAIKVIPACPPVQRLSKEQDKKKTVLLTSLPLPPPAPRLHMLADPLPIKSNKVNNVLGLGSAINAVSLEERPASGSTVNSGIFVPPPTAFSPPLTTSSRSSVAQDPSPPLTINKNSLSSSGPLIPSTAHLSATTASATPIMANGSTLPPSSETTVGTHCLQQLQIQSAAAAAITQNQIGPSELNGYPAASQLSSFMHEIPARNTTSVASLLPPGAAEYHLNGSGDEEKTVKAVLTAPLTKAKRIRDSKNDMMDKTHKRPRANARPPAVLGSMSSGSSGGTVGKSPSMQRLQNLVAPIVSETVTDFQRDRVADRTAAERRAAAAQSQPSTSTNGGPNVTIPAVVEVHTNSTNSTNHQNNGLTQNAPASTSMQAGTSSNDGVISQNGTSSTSQSNRLNLPSFMEQLLERQWDQGSSLLMANAHFDVAQLLSCLFQLKSENFRLEENLSGLRKRRDHLFALNSRLAEVNTLDVSKRQRSDGLLLQQQIAHHLDPTSIVPKAEVHKQEPLSAPTSVPLPANHSSSLFEDIKAPKATYSRKTPSNIPLTVPLSTAATALTTTTAASSGAPVNSNIQNHRATPSTAGAPMAATPIMTAVTSANELAALSPERAQALLNMYRMPLDANVAAQLSMITNFPGQVNPSLFSRLLAVNMMNGGLQPNGQPLSALPPPTSATPNGK”, the “soluble on expression in E. coli” value was “soluble”.

Regarding “MKENFLKQKRMEKNLTLEQVGNFVGVGKSTVRKWETGMIENMGRDKIVALSKILDVSPLEILGIPETEETPFVVPTNIMNIYKQLTTENQEAVFRYAQKKLTEQNYF”, the “soluble on expression in E. coli” value is “not soluble”.

For “MKFFNREKEINEILLILEEEPNNIYFIYGPLNSGKSTLIREVITNRLDKSKYIPFFIDFRTRNILNVDNFIECLFEVDEKSKIDDFREYAKSLADLLVKGSEEISKYYLGMPIKVPKPFFDRIFSKRDKSADVYQYIEYLFAKLNEKGKKPILIFDELQMIREITLNGNRLLLWSLFQFLVALTKVQHLCHVFCLSSDSLFIEYIYGKAELKGGVDYILVDDFDKKTALKFMDFLAKQKNINLTNEDKELIYSYVGGKAKYIYDVIVKLKAVKDLKYILETKLEEERNHLEELLEKVEEDYEGINYDEVLEALKLFKDNYELPKSKIKRKIRIFLIKENILFLNPQKGTLKPQSYLVWNAIKRML”, the “soluble on expression in E. coli” value was “not soluble”.

As to “MKFIVKLQAEITIKSRPVRKRFTKILESSVKNVLRRIDEQVTTRMNWDNIEVNTKDNSPENRERLVEALKCIPGIPMFLEVQQSEFVDVHDIYEKTLAVHAESIENKTFCVRAKRTGNHDFNSLKVEQYVGGGLNQQVESAKVKLKNPDVTIHLEIKNKDLFIVTQRHKGLGGFPIATQEDVLSLMSGGFDSGVSSYQMIKKGARTHYCFFNLGGSAHEVGVKQISYYLWNKFGASHKVKFFAVDFEPVVAEILENVENSQMGVVLKRMMIRAATKIAERGKIQALVTGESLGQVSSQTLTNLNVINRVTDTLILRPLAAYDKQDIIDIARKIGTEEFSKTIPEYCGVISKKPTVKAVLSKVEEEEGNFDFDVLDKVVSETRVYDIRDIGKEAEEEIHAVDLVENIPENAVVVDIRSPEEEEDKPLELGDVEVKHIPFYKLSTQFGDLDMTKEYLLYCDHGVMSKLQALYLLDNGFKNVKVYRP”, the “soluble on expression in E. coli” value is reported as “not soluble”.
